Laboratory results taken from article PMC10638432, “Biodistribution and function of coupled polymer-DNA origami nanostructures”.

Target: recombinant human TNF-alpha (biotinylated, R&D Systems BT210) (human, UniProt P01375 77-233)
Assay: flow cytometry (FACS) bead binding; TT linker did not affect binding; PBS-/- (no Ca/Mg) with 0.005% Tween-20, 1 h at 37 C, biotinylated TNFa on streptavidin magnetic beads; pH not stated
Settings: protein: commercial; tags: biotin; chain copies: 3; label: 5' ATTO647N

recombinant human TNF-alpha (biotinylated, R&D Systems BT210), sequence (P01375 77-233): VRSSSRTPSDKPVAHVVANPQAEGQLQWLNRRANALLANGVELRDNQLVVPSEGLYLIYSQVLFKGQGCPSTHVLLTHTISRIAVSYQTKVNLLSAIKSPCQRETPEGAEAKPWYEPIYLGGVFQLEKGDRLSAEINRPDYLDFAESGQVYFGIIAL

B1: TNFa aptamer polyT linker (hTNFa long rod aptamer) (ssDNA)
DNA: TTTGGTGGATGGCGCAGTCGGCGACAA
- binding result: binds
